The values below come from paper PMC2760644 (Journal of molecular biology, 2009).

The target in the experiment is F-actin (chicken, UniProt P68139 1-377). Nature of the experiment: co-sedimentation.

Bounds are passed on as bounds.

B1: supervillin headpiece, wild type (domain or fragment)
chain: LAKLCKTIYPLADLLARPLPEGVDPLKLEIYLTDEDFEFALDMTRDEYNALPAWKQVNLKKAKGLF
The molecule B1 displayed a Kd greater than 20 mM.

A word on the Kd: it is the free concentration of one partner at which half of the binding sites on the other are occupied at equilibrium, for simple one-to-one binding. High values mean a looser complex, low ones a tighter complex.
